The record followed here is patent US20220177583A1.

For experiment [1], the target named is human CLDN6 fused to GFP, expressed on engineered HEK293T cells (human) (UniProt P56747). In words: FACS, 293T clone with human CLDN6, 0.3 ug Ab. On the technique in general: In flow cytometry, cells or beads pass a laser one at a time.
The target is the same in experiment [2]. In words: FACS, 293T clone with human CLDN6, 1.5 ug Ab.

B1: AB3-2 (antibody, V domains shown)
VH: EVQLLESGGGLVQPGGSMRLSCAASGFTFSNYWMNWVRQAPGKGLEWVAQIRLKSDNYATHYADSVKGRFTISRDDSKNTVYLQMNSLRAEDTGVYYCNDGPPSGCWGQGTLLTVSS
VL: DIQMTQSPSSLSASVGDRVTITCRISENIYSYLAWYQQKPGKAPKLLIYNAKILVEGVPSRFSGSGSGTDFTLTISSLQPEDFATYYCQHHYTVPWTFGQGTKLEIK
In the case of B1, the FACS signal is 309000 in experiment [1] and 396000 in experiment [2].

B2: AB3-3 (antibody, V domains shown)
VH: EVQLLESGGGLVQPGGSMRLSCAASGFTFSNYWMNWVRQAPGKGLEWVAQIRLKSDNYATHYADSVKGRFTISRDDSKNTVYLQMNSLRAEDTGVYYCNDGPPSGCWGQGTLLTVSS
VL: DIQMTQSPSSLSASVGDRVTITCRISENIYSYLAWYQQKPGKAPKLLVYNAKILVEGVPSRFSGSGSGTDFTLTISSLQPEDFGTYYCQHHYTVPWTFGQGTKLEIK
As to B2, the FACS signal was 251000 in experiment [1] and 340000 in experiment [2].

B3: AB3-5 (antibody, V domains shown)
VH: EVQLLESGGGLVQPGGSMRLSCAASGFTFSNYWMNWVRQAPGKGLEWVAQIRLKSDNYATHYADSVKGRFTISRDDSKNTVYLQMNSLRAEDTGVYYCNDGPPSGYWGQGTLLTVSS
VL: DIQMTQSPSSLSASVGDRVTITCRISENIYSYLAWYQQKPGKAPKLLVYNAKILVEGVPSRFSGSGSGTDFTLTISSLQPEDFGTYYCQHHYTVPWTFGQGTKLEIK
For B3, the FACS signal worked out at 13300 in experiment [1] and 48600 in experiment [2].

B4: AB3-4 (antibody, V domains shown)
VH: EVQLLESGGGLVQPGGSMRLSCAASGFTFSNYWMNWVRQAPGKGLEWVAQIRLKSDNYATHYADSVKGRFTISRDDSKNTVYLQMNSLRAEDTGVYYCNDGPPSGYWGQGTLLTVSS
VL: DIQMTQSPSSLSASVGDRVTITCRISENIYSYLAWYQQKPGKAPKLLIYNAKILVEGVPSRFSGSGSGTDFTLTISSLQPEDFATYYCQHHYTVPWTFGQGTKLEIK
As for B4, the FACS signal in experiment [1] amounted to 11600; in experiment [2], 55800.

B5: AB3-chim (antibody, V domains shown)
VH: EVKLEESGGGLVQPGGSMKLSCVASGFTFSNYWMNWVRQSPEKGLEWVAQIRLKSDNYATHYAESVKGRFTISRDDSKRSVYLQMNNLRAEDTGTYYCNDGPPSGCWGQGTTLIVSS
VL: DIQMTQSPASLSASVGETVTITCRISENIYSYLAWYQQKQGKSPQLLVYNAKILVEGVPSRFSGSGSGTQFSLKINSLQPEDFGNYYCQHHYTVPWTFGGGTKLEIK
Turning to B5, the FACS signal in experiment [1] was found to be 267000; in experiment [2], 459000.

B6: AB1-Chim (antibody, V domains shown)
VH: QVQLQQSAAELARPGASVKMSCKASGYTFTTYTMHWVKQRPGQGLEWIGFINPSSGYTDYNQKFKDRTTLTADKSSSTVYMQLSSLTSEDSAVYYCANGDYYVAYWGQGTLVTVSA
VL: QIVLTQSPAIMSASLGERVTMTCTASSSVSSTYFHWYQQKPGSSPKLWIYSTSNLASGVPRRFSGSASGTSYSLTISSMEAEDAATYYCHQYHRSPLTFGAGTKLELK
B6: the FACS signal in experiment [1] stood at 312000; in experiment [2] it was 364000.

B7: AB4-3 (antibody, V domains shown)
VH: QVQLVQSGAEVKKPGASVKVSCKASGYTFTSYTMHWVRQAPGQGLEWMGYINPSSTYTHYAQKFQGRVTMTADTSTSTVYMELSSLRSEDTAVYYCSRGELGGFAYWGQGTLVTVSS
VL: DVVMTQSPLSLPVTLGQPASISCRSSQSLVHSDGNTYLNWYQQRPGQSPRLLIYKVSNRFSGVPDRFSGSGSGTDFTLKISRVEAEDVGVYYCSQSTHVPYTFGQGTKLEIK
Take B7: the results for the FACS signal in experiment [1] and in experiment [2] were 14300 and 47800, respectively.

B8: AB4-7 (antibody, V domains shown)
VH: QVQLVQSGAEVKKPGASVKMSCKASGYTFTSYTMHWIRQAPGQGQEWIGYINPSSTYTHYAQKFQGRATLTADKSTSTAYMELSSLRSEDTAVYYCSRGELGGFAYWGQGTLVTVSS
VL: DVVMTQSPLSLPVTLGQPASISCRSSQSLVHSDGNTYLNWYQQRPGQSPRLLIYKVSNRFSGVPDRFSGSGSGTDFTLKISRVEAEDVGVYYCSQSTHVPYTFGQGTKLEIK
With B8, the FACS signal in experiment [1] was 19200; in experiment [2] it was 33300.

B9: AB4-8 (antibody, V domains shown)
VH: QVQLVQSGAEVKKPGASVKVSCKASGYTFTSYTMHWVRQAPGQGLEWMGYINPSSTYTHYIKKFKDRVTMTADTSTSTVYMELSSLRSEDTAVYYCSRGELGGFAYWGQGTLVTVSS
VL: DVVMTQSPLSLPVTLGQPASISCRSSQSLVHSDGNTYLNWYQQRPGQSPRLLIYKVSNRFSGVPDRFSGSGSGTDFTLKISRVEAEDVGVYYCSQSTHVPYTFGQGTKLEIK
As for B9, the FACS signal in experiment [1] came to 49300; in experiment [2], 77600.

B10: AB4-4 (antibody, V domains shown)
VH: QVQLVQSGAEVKKPGASVKMSCKASGYTFTSYTMHWIRQAPGQGLEWIGYINPSSTYTHYAQKFQGRATLTADTSTSTAYMELSSLRSEDTAVYYCSRGELGGFAYWGQGTLVTVSS
VL: DVVMTQSPLSLPVTLGQPASISCRSSQSLVHSDGNTYLNWYQQRPGQSPRLLIYKVSNRFSGVPDRFSGSGSGTDFTLKISRVEAEDVGVYYCSQSTHVPYTFGQGTKLEIK
Take B10: the FACS signal in experiment [1] was 14100; in experiment [2] it was 49000.

B11: AB4-5 (antibody, V domains shown)
VH: QVQLVQSGAEVKKPGASVKMSCKASGYTFTSYTMHWIRQAPGQGQEWIGYINPSSTYTHYAQKFQGRATLTADTSTSTAYMELSSLRSEDTAVYYCSRGELGGFAYWGQGTLVTVSS
VL: DVVMTQSPLSLPVTLGQPASISCRSSQSLVHSDGNTYLNWYQQRPGQSPRLLIYKVSNRFSGVPDRFSGSGSGTDFTLKISRVEAEDVGVYYCSQSTHVPYTFGQGTKLEIK
As to B11, the FACS signal in experiment [1] amounted to 16800; in experiment [2], 43400.

B12: AB4-6 (antibody, V domains shown)
VH: QVQLVQSGAEVKKPGASVKMSCKASGYTFTSYTMHWIRQAPGQGLEWIGYINPSSTYTHYAQKFQGRATLTADKSTSTAYMELSSLRSEDTAVYYCSRGELGGFAYWGQGTLVTVSS
VL: DVVMTQSPLSLPVTLGQPASISCRSSQSLVHSDGNTYLNWYQQRPGQSPRLLIYKVSNRFSGVPDRFSGSGSGTDFTLKISRVEAEDVGVYYCSQSTHVPYTFGQGTKLEIK
For B12, the FACS signal came out at 10800 in experiment [1] and 29200 in experiment [2].

B13: AB1-3 (antibody, V domains shown)
VH: QVQLVQSGAEVKKPGASVKVSCKASGYTFTTYTMHWVRQAPGQGLEWMGFINPSSGYTDYAQKFQGRVTMTADTSTSTVYMELSSLRSEDTAVYYCANGDYYVAYWGQGTLVTVSS
VL: DIQMTQSPSSLSASVGDRVTITCTASSSVSSTYFHWYQQKPGKAPKLLIYSTSNLASGVPSRFSGSGSGTDYTLTISSLQPEDFATYYCHQYHRSPLTFGQGTKLEIK
In the case of B13, the FACS signal in experiment [1] and in experiment [2] was 142000 in each case.

B14: AB1-11 (antibody, V domains shown)
VH: QVQLVQSGAEVKKPGASVKMSCKASGYTFTTYTMHWVRQAPGQGLEWIGFINPSSGYTDYAQKFQGRVTLTADKSTSTVYMELSSLRSEDTAVYYCANGDYYVAYWGQGTLVTVSS
VL: DIQLTQSPSSLSASVGDRVTMTCTASSSVSSTYFHWYQQKPGKAPKLWIYSTSNLASGVPSRFSGSGSGTDYTLTISSMQPEDAATYYCHQYHRSPLTFGQGTKLEIK
Regarding B14, the FACS signal in experiment [1] turned out to be 64900; in experiment [2] it was 113000.

B15: AB1-4 (antibody, V domains shown)
VH: QVQLVQSGAEVKKPGASVKVSCKASGYTFTTYTMHWVRQAPGQGLEWMGFINPSSGYTDYAQKFQGRVTMTADTSTSTVYMELSSLRSEDTAVYYCANGDYYVAYWGQGTLVTVSS
VL: DIQLTQSPSSLSASVGDRVTMTCTASSSVSSTYFHWYQQKPGKAPKLLIYSTSNLASGVPSRFSGSGSGTDYTLTISSMQPEDAATYYCHQYHRSPLTFGQGTKLEIK
Take B15: the values for the FACS signal in experiment [1] and in experiment [2] were 102000 and 197000, respectively.

B16: AB1-8 (antibody, V domains shown)
VH: QVQLVQSGAEVKKPGASVKMSCKASGYTFTTYTMHWVRQAPGQGLEWIGFINPSSGYTDYAQKFQGRVTLTADTSTSTVYMELSSLRSEDTAVYYCANGDYYVAYWGQGTLVTVSS
VL: DIQLTQSPSSLSASVGDRVTMTCTASSSVSSTYFHWYQQKPGKAPKLWIYSTSNLASGVPSRFSGSGSGTDYTLTISSMQPEDAATYYCHQYHRSPLTFGQGTKLEIK
On to B16, for which the FACS signal in experiment [1] came out at 98800; in experiment [2] it was 210000.

B17: AB1-5 (antibody, V domains shown)
VH: QVQLVQSGAEVKKPGASVKVSCKASGYTFTTYTMHWVRQAPGQGLEWMGFINPSSGYTDYAQKFQGRVTMTADTSTSTVYMELSSLRSEDTAVYYCANGDYYVAYWGQGTLVTVSS
VL: DIQLTQSPSSLSASVGDRVTMTCTASSSVSSTYFHWYQQKPGKAPKLWIYSTSNLASGVPSRFSGSGSGTDYTLTISSMQPEDAATYYCHQYHRSPLTFGQGTKLEIK
B17: the figures for the FACS signal in experiment [1] and in experiment [2] were 138000 and 213000, respectively.

B18: AB1-7 (antibody, V domains shown)
VH: QVQLVQSGAEVKKPGASVKMSCKASGYTFTTYTMHWVRQAPGQGLEWIGFINPSSGYTDYAQKFQGRVTLTADTSTSTVYMELSSLRSEDTAVYYCANGDYYVAYWGQGTLVTVSS
VL: DIQLTQSPSSLSASVGDRVTMTCTASSSVSSTYFHWYQQKPGKAPKLLIYSTSNLASGVPSRFSGSGSGTDYTLTISSMQPEDAATYYCHQYHRSPLTFGQGTKLEIK
With B18, the FACS signal in experiment [1] is 79200; in experiment [2], 207000.

B19: AB1-6 (antibody, V domains shown)
VH: QVQLVQSGAEVKKPGASVKMSCKASGYTFTTYTMHWVRQAPGQGLEWIGFINPSSGYTDYAQKFQGRVTLTADTSTSTVYMELSSLRSEDTAVYYCANGDYYVAYWGQGTLVTVSS
VL: DIQMTQSPSSLSASVGDRVTITCTASSSVSSTYFHWYQQKPGKAPKLLIYSTSNLASGVPSRFSGSGSGTDYTLTISSLQPEDFATYYCHQYHRSPLTFGQGTKLEIK
On to B19, for which the FACS signal in experiment [1] is 120000; in experiment [2], 227000.
